Measured values: patent publication US20130171677A1 (BOARD OF SUPERVISORS OF THE UNIVERSITY OF LOUISIANA SYSTEM, published 2013)

Biological target: the molecule itself
Assay: size exclusion chromatography of purified recombinant TeCpcS (complex 53.0 kDa against ~24.0 kDa calculated for HT-TeCpcS)
Procedure: In order to determine the molecular mass of TeCpcS in its native state, the purified, recombinant TeCpcS was subjected to size exclusion chromatography. The molecular mass of this complex was calculated to be 53.0 kDa, and the calculated molecular mass of HT-TeCpcS is ˜24.0 kDa.

B1: Bilin lyase CpcS from Thermosynechococcus elongatus BP1 (TeCpcS), His-tagged (enzyme)
chain: MCIGMDIRDFFAQSAGRWFSQRTSHHLAFKQTESGKSQLTIELLSVDDPAVIALCQQYDMDPAWAVCGARVSWDGTMEWDNEKHEGSTVLVPIMDQGSRMEGKLLREMGYAEKAPVAGRFSMGSDGALTLITEYETIYSEERLWFASPNLRLRTSILKRFGGFSMASFCSEIRLGVTQPANS
notes: also called HT-TeCpcS; CpcS-III; not shown: C-terminal His-tag from the pET22c construct used for crystallization and size-exclusion chromatography
binding result: binds
